The values that follow come from the supplement of paper PMC10126150.

± gives the standard deviation of the averaged measurements.
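Note: ATP exposure 15 min at 22 °C before imaging.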

The series deals with ATP. Nature of the series: switch fluorescence ratio, 500 uM ATP over buffer (Cy3 cluster intensity, sum of 5 cycles each) (fold (ratio)); higher = stronger signal-on switching upon ATP binding; sequences stand for … in TCGTCGGCAGCGTCAGATGTGTATAAGAGACAGTTTTTTTTTTTTTTTTTTTTTTTTT…TC. To be noted: aptamer strand: ATP DNA aptamer (quencher-CACCTGGGGGAGTATTGCGGAGGAAGG + anchor), 100 nM annealed; ATP concentration: 500 uM. Summed up:
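The fluorescence ratio divides summed target-cycle Cy3 intensity by summed buffer-cycle Cy3 intensity for each cluster and is averaged per switch-domain sequence. Cy3-labelled switching-strand clusters on a modified Illumina MiSeq flow-cell were annealed to 100 nM quencher-labelled ATP aptamer, then imaged in selection buffer and again after 15 min with 500 uM ATP at 22 °C. Five such cycles were run, with NaOH stripping and re-annealing between them, and clusters outside 100-1000 RFU were excluded.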
In the case of CCGAATTGGG, the switch fluorescence ratio came out at 1.01 ± 0.032.

Consider TGCGGGCTAG, for which the switch fluorescence ratio worked out at 1.01 ± 0.015.

CATGAATTGT: the switch fluorescence ratio was 0.974 ± 0.019.

Take AAAAGGTGG: the switch fluorescence ratio was found to be 0.983 ± 0.011.

As to GGGCGGGTCT, the switch fluorescence ratio is 1.01 ± 0.046.

Take CAGTAAGAAT: the switch fluorescence ratio was 0.9809 ± 0.0019.

On to GAGGGTATCG, for which the switch fluorescence ratio came out at 0.984 ± 0.039.

Turning to TTTACTTCGC, the switch fluorescence ratio is 1.54 ± 0.089.

For CTAAACGTCA, the switch fluorescence ratio turned out to be 1.1 ± 0.051.

On to TAGTGAGGGA, for which the switch fluorescence ratio was 0.992 ± 0.013.

On to GTAATTGGGA, for which the switch fluorescence ratio is 1.022 ± 0.0011.

TTAAATGGGG: the switch fluorescence ratio stood at 0.978 ± 0.011.

With CGTGATTTTT, the switch fluorescence ratio worked out at 1 ± 0.041.

Consider AGGGGGCGCC, for which the switch fluorescence ratio came to 1.02 ± 0.016.

For the sequence TGATGCTGTA, the switch fluorescence ratio came to 0.977 ± 0.063.

Take CCATTAGTTT: the switch fluorescence ratio worked out at 0.987 ± 0.018.

For the sequence ATTAGTAAGA, the switch fluorescence ratio was determined as 0.975 ± 0.011.

As for TTTGGCTTTC, the switch fluorescence ratio worked out at 1.06 ± 0.016.

On to ATGTAATTCG, for which the switch fluorescence ratio turned out to be 1.002 ± 0.0086.

For GATTGGGGTA, the switch fluorescence ratio is 0.978 ± 0.038.

With GCCCGGGGAC, the switch fluorescence ratio was 1.18 ± 0.12.

With GTAGCATGCC, the switch fluorescence ratio was 1.32 ± 0.088.

With CGGGCGATGG, the switch fluorescence ratio worked out at 1.08 ± 0.017.

Regarding TGAGGGGT, the switch fluorescence ratio was 0.958 ± 0.027.

For the sequence GATTTAAGGG, the switch fluorescence ratio was 0.993 ± 0.018.

For the sequence CAGAATTGGG, the switch fluorescence ratio is 0.967 ± 0.028.

In the case of CCTGAGGGAT, the switch fluorescence ratio is 1.86 ± 1.4.

On to AAGGCCGTGA, for which the switch fluorescence ratio stood at 1.03 ± 0.085.

Consider TTCGGCTTGG, for which the switch fluorescence ratio was 0.984 ± 0.035.

With CGAGTTAAAT, the switch fluorescence ratio was 1.01 ± 0.037.

As to TTGATTTAAA, the switch fluorescence ratio stood at 1.01 ± 0.0047.

Regarding AAAAAGGTTC, the switch fluorescence ratio was 0.991 ± 0.017.

Take CGTATTTTGC: the switch fluorescence ratio turned out to be 1.03 ± 0.066.

In the case of AGAGTTTGTG, the switch fluorescence ratio came out at 0.978 ± 0.015.

GGTGCATGTG: the switch fluorescence ratio is 0.9713 ± 0.0013.

In the case of CTAGGTACTT, the switch fluorescence ratio was 1.03 ± 0.037.

As for GTCCTTGATA, the switch fluorescence ratio was determined as 1.01 ± 0.024.

In the case of AATCCAGGGC, the switch fluorescence ratio is 1.05 ± 0.056.

With TAGGCTGTAC, the switch fluorescence ratio stood at 2.84 ± 1.6.

With TGGGGAAATG, the switch fluorescence ratio was 0.997 ± 0.029.

In the case of TATTTAAGTT, the switch fluorescence ratio worked out at 1.03 ± 0.013.

With TGGTTCGAT, the switch fluorescence ratio was 0.978 ± 0.015.

As to CTGTCGGGCG, the switch fluorescence ratio is 1.02 ± 0.035.

With TGTTGGGCAG, the switch fluorescence ratio was found to be 0.9634 ± 0.0089.

For GAGGTTTCAT, the switch fluorescence ratio stood at 0.997 ± 0.016.

Regarding AGGGGTTATC, the switch fluorescence ratio came to 1.02 ± 0.026.

Turning to TTTAAATTTA, the switch fluorescence ratio was 1.01 ± 0.028.

On to AAGGTTGGGG, for which the switch fluorescence ratio turned out to be 0.994 ± 0.017.

TTACTGATCG: the switch fluorescence ratio worked out at 1.025 ± 0.0073.

CGGTCCGGTG: the switch fluorescence ratio was 1.04 ± 0.026.

Consider ATCTTGGTCC, for which the switch fluorescence ratio is 0.9948 ± 0.003.

Regarding TTTTTTGCT, the switch fluorescence ratio worked out at 0.996 ± 0.039.

For CGCAGGGGGG, the switch fluorescence ratio was determined as 1.09 ± 0.034.

As for CGTTATACTG, the switch fluorescence ratio is 1.07 ± 0.027.

Consider AGTCTACTAT, for which the switch fluorescence ratio came out at 1 ± 0.0088.

In the case of GATAAGGAAG, the switch fluorescence ratio is 1.02 ± 0.011.

Take ATTCTAGGA: the switch fluorescence ratio came out at 0.985 ± 0.02.

As to AGGGTCTCAT, the switch fluorescence ratio is 1.02 ± 0.022.

Turning to GGTGGGGTGT, the switch fluorescence ratio was determined as 0.982 ± 0.05.

Consider TATCCTTTTT, for which the switch fluorescence ratio is 1.03 ± 0.057.

Turning to CGTTGGCCGT, the switch fluorescence ratio was 1.03 ± 0.085.

Regarding AGGCTGCGTT, the switch fluorescence ratio came to 1.02 ± 0.038.

ATCCGGTTTG: the switch fluorescence ratio was determined as 0.982 ± 0.041.

On to TTAAAAGTAT, for which the switch fluorescence ratio came out at 1.01 ± 0.043.

On to AATCAAGGCG, for which the switch fluorescence ratio worked out at 1.03 ± 0.1.

As to GGGGTAGCGA, the switch fluorescence ratio stood at 0.992 ± 0.051.

For the sequence TCGGGGCAGT, the switch fluorescence ratio was 2.01 ± 1.4.

Consider AGTAGTGGGG, for which the switch fluorescence ratio is 0.994 ± 0.013.

For the sequence GGGCATAGGA, the switch fluorescence ratio is 1.03 ± 0.097.

In the case of AAATTAGGGA, the switch fluorescence ratio is 0.978 ± 0.046.

On to TTTTTGTTAC, for which the switch fluorescence ratio came to 1.08 ± 0.027.

On to CGGGAGGGGA, for which the switch fluorescence ratio was determined as 1 ± 0.025.

Regarding TGTTGTTGTT, the switch fluorescence ratio was 1.01 ± 0.086.

As for AGGTGCTACG, the switch fluorescence ratio came to 1.03 ± 0.012.

Take CGGGGGCTT: the switch fluorescence ratio is 1.002 ± 0.0044.

CCAACGGGGA: the switch fluorescence ratio was 1.1 ± 0.085.

Take TTTAATTGGT: the switch fluorescence ratio worked out at 1.02 ± 0.021.

As to GCGGGCCTTT, the switch fluorescence ratio is 1.015 ± 0.0066.
